Reference: patent US20080020964A1, “Test System for the Discovery of Substances for the Promotion of Neuraxonal Growth” (priority 2003, published 2008)

What was measured:
PC12 cells [1] = test: Neurite growth in PC12 cells transiently transfected with Smn or hnRNP-R and -Q; type: cell-based, rat; conditions: transient overexpression, differentiation with 50 ng/ml NGF for three days
Experimental: Rat pheochromocytoma cells (PC12) were cultivated in DMEM (Invitrogen, Carlsbad, Calif., USA)+10% horse serum+5% fetal calf serum+antibiotics. Before the transfection, the cells were plated out in a high density in 24-well culture dishes and transfected with 1 μg plasmid DNA (Lipofectamine 2000; Invitrogen, Carlsbad, Calif., USA). For this purpose, expression plasmids were used, into which wildtype forms marked with epitope tags (HA tag of FLAG tag) or mutated versions of Smn, hnRNP-R or hnRNP-Q have been cloned. On the day after the transfection, the cells were plated out in 35 mm culture dishes on glass plates coated with poly-DL-or nithine in a density of 1,000 cells/cm^2. As a differentiation medium, DMEM+2% horse serum and 1% fetal calf serum+50 ng/ml NGF+antibiotics were used. After three days, the cells were fixed and stained. The PC12 cells were fixed with 4% paraformaldehyde (PFA) in buffered common salt solution (PBS). […] After washing again with TBS-T, the cells were embedded in Mowiol and evaluated at the fluorescence microscope or the confocal microscope as mentioned above.

[2] = test system: 3′ untranslated region of β-actin mRNA; test: Binding of radioactively marked β-actin mRNA to immunoprecipitated HA-marked hnRNP-R (filter, PSL); conditions: HA-marked protein from transfected HEK 293 cells, 32P-marked RNA, 30 minutes at room temperature
Experimental: The untranslated 3′ regions of β-actin from the stop codon to the poly-A sequence or the so-called zipcode region (Kislauskis et al., 1994) were amplified by RT-PCR and cloned into a plasmid with the binding site for the T7 RNA polymerase (pTZ19). Optionally, a poly-A tail of 30 nucleotides was added. (Used primers:
actinUTRfwd […], actinUTRpolyAfullrev, ATGAGAATTC-T(30)-[…], actinUTRpolyAziprev, ATGA-GAATTC-T(30)-[…], actinUTRfullrev, […]). The plasmids were linearized by digestion with EcoRI at the 3′ end, and were purified. […]
A cell line from human embryonic kidney cells (HEK 293) was transfected with expression constructs marked by HA epitope for the wildtype forms or mutated versions of Smn or hnRNP-R. After 48 hours, the cells were lysated in lysis buffer (25 mM Tris-HCl pH=8.0, 137 mM NaCl, 2 mM EGTA, 2 mM EDTA, 10% glycerol, 1% Triton X-100, 0.05% β-mercaptoethanol and protease inhibitors; Roche, Bale, Switzerland), and the HA-marked proteins were purifies by immunoprecipitation with anti-HA agarose (HA.11, Covance, Denver, Pa., USA). […] These filters were exposed with phosphoimager plates (BAS-2500, Photo Film Europe GmbH, Duesseldorf, Germany), and the bound radioactivity was measured as photo-stimulating luminescence (PSL) by means of the AIDA software package (Raytest, Straubenhardt, Germany).

PC12 cells [3] = test: Neurite growth in Smn or hnRNP-R or -Q overexpressing stable PC12 cell lines; type: cell-based, rat; conditions: differentiated seven days
Experimental: For preparing stable cell lines, PC12 cells were cultivated as described above, and transfected with expression vectors for the wildtype form or mutated Smn, hnRNP-R or hnRNP-Q. Thereafter, the cells were selected in a small cell density with the antibiotic G418 with regard to their neomycin resistance. Individual clones were tested by Western blot analysis for their stable expression of the constructs to be expressed. For measuring the neurite length, the cells were plated out as described above on coated glass plates, differentiated by the addition of differentiation medium and fixed, stained after seven days, and the neurite growth was quantified as described above.

PC12 cell lines = test: β-actin content in neurites and growth cones of cultivated PC12 cell lines (immunostaining); type: cell-based, rat; conditions: stable PC12 cell lines, anti-actin / anti-β-actin antibodies
Experimental: The cultivation of PC12 cell lines and the fixation, staining and evaluation was performed as described above. As antibodies, monoclonal anti-Smn antibodies (BD Biosciences, Lexington, Ky., USA, 1:500), rabbit anti-hnRNP-R antibodies (Rossoll et al., 2002; 1:1,000), anti-actin (Roche, Bale, Switzerland, 1:200) and β-actin (Abcam, Cambridge, UK; 1:1,000) were used. Since in neurites preferably β-actin is localized, the results are similar for anti-actin and specifically anti-β-actin.

| Molecule | effect on neurite growth (PC12 cells [1]) | binding to the 3′ untranslated region of β-actin mRNA [2] | neurite length versus control cell lines (untransfected or empty plasmid) (PC12 cells [3]) | β-actin staining in the growth zones of the neurites (PC12 cell lines) |
| --- | --- | --- | --- | --- |
| SmnY272C: Smn with a point mutation, no interaction with hnRNP-R, also found in SMA patients | no stimulating effect |  |  |  |
| hnRNP-R: heterogeneous nuclear ribonucleic protein R, epitope-tagged wildtype form overexpressed from an expression plasmid (protein, UniProt O43390 2-633, looked up, epitope tag) Heterogeneous nuclear …: ANQVNGNAVQLKEEEEPMDTSSVTHTEHYKTLIEAGLPQKVAERLDEIFQTGLVAYVDLDERAIDALREFNEEGALSVLQQFKESDLSHVQNKSAFLCGVMKTYRQREKQGSKVQESTKGPDEAKIKALLERTGYTLDVTTGQRKYGGPPPDSVYSGVQPGIGTEVFVGKIPRDLYEDELVPLFEKAGPIWDLRLMMDPLSGQNRGYAFITFCGKEAAQEAVKLCDSYEIRPGKHLGVCISVANNRLFVGSIPKNKTKENILEEFSKVTEGLVDVILYHQPDDKKKNRGFCFLEYEDHKSAAQARRRLMSGKVKVWGNVVTVEWADPVEEPDPEVMAKVKVLFVRNLATTVTEEILEKSFSEFGKLERVKKLKDYAFVHFEDRGAAVKAMDEMNGKEIEGEEIEIVLAKPPDKKRKERQAARQASRSTAYEDYYYHPPPRMPPPIRGRGRGGGRGGYGYPPDYYGYEDYYDDYYGYDYHDYRGGYEDPYYGYDDGYAVRGRGGGRGGRGAPPPPRGRGAPPPRGRAGYSQRGAPLGPPRGSRGGRGGPAQQQRGRGSRGSRGNRGGNVGGKRKADGYNQPDSKRRQTNNQQNWGSQPIAQQPLQQGGDYSGNYGYNNDNQEFYQDTYGQQWK |  | bind to the 3′ untranslated region of β-actin mRNA | three times longer neurites | strong concentration of β-actin |
| hnRNP-Q: heterogeneous nuclear ribonucleic protein Q, epitope-tagged wildtype form overexpressed from an expression plasmid (protein, UniProt O60506 2-623, looked up, epitope tag) Heterogeneous nuclear …: ATEHVNGNGTEEPMDTTSAVIHSENFQTLLDAGLPQKVAEKLDEIYVAGLVAHSDLDERAIEALKEFNEDGALAVLQQFKDSDLSHVQNKSAFLCGVMKTYRQREKQGTKVADSSKGPDEAKIKALLERTGYTLDVTTGQRKYGGPPPDSVYSGQQPSVGTEIFVGKIPRDLFEDELVPLFEKAGPIWDLRLMMDPLTGLNRGYAFVTFCTKEAAQEAVKLYNNHEIRSGKHIGVCISVANNRLFVGSIPKSKTKEQILEEFSKVTEGLTDVILYHQPDDKKKNRGFCFLEYEDHKTAAQARRRLMSGKVKVWGNVGTVEWADPIEDPDPEVMAKVKVLFVRNLANTVTEEILEKAFSQFGKLERVKKLKDYAFIHFDERDGAVKAMEEMNGKDLEGENIEIVFAKPPDQKRKERKAQRQAAKNQMYDDYYYYGPPHMPPPTRGRGRGGRGGYGYPPDYYGYEDYYDYYGYDYHNYRGGYEDPYYGYEDFQVGARGRGGRGARGAAPSRGRGAAPPRGRAGYSQRGGPGSARGVRGARGGAQQQRGRGVRGARGGRGGNVGGKRKADGYNQPDSKRRQTNNQNWGSQPIAQQPLQGGDHSGNYGYKSENQEFYQDTFGQQWK |  |  | three times longer neurites |  |
